From publication PMC7105229
Read-outs that look alike come from different tables or passages of the source.

Legend:
[1] = biological target: Vibrio vulnificus FAN1 (Vibrio vulnificus); experiment: SEC
[2] = biological target: Vibrio vulnificus FAN1 (Vibrio vulnificus); experiment: SEC; remark: listed apart in the source

Vibrio vulnificus FAN1 (enzyme)
stoichiometry N [1]: 2 | stoichiometry N [2]: 2
